Source: patent US20050287518A1

Experiments:
[1] = biological target: GFP-Rac1 fusion (EGFP mutant, 6His construct) bound to GTPγS [GFP: P42212]; test: FRET titration in solution: 200 nM GFP-Rac1-GTPγS, varied Alexa-PBD, Alexa/GFP emission ratio fit to Y=A*X/(Kd+X)
[2] = biological target: GFP-Rac1 fusion (EGFP mutant, 6His construct) bound to GTPγS [GFP: P42212]; test: FRET in solution at saturating (1 micromolar) Alexa-PBD, GFP-Rac1 loaded with varied GTPγS

Substance “Alexa-PBD (PBD, fragment of human PAK1, residues 65-150, with a single cysteine added in the penultimate N-terminal position, C-terminal 6His fusion, labeled with Alexa 546) (from UniProt Q13153 65-150)” has a Kd [1] of 1100 nM and a fold change of corrected Alexa/GFP emission ratio [2] of 4 fold.
